From US20250263502A1

B1: VNAR clone F1 fused N-terminally to human IgG1 Fc (VNAR-hFc) (Fc fusion, not shown: a dimerising Fc or GST)
chain: ARVDQTPQTITKEEGESLTINCVLRVHGRALASTSWYRKKSGSTREETISKGGRYVETVNSGSKSFSLRINDLTVEDSGTYRCNVYGLSSGDIEGVKKIDVYGDGTAVTVNA
B2: VNAR clone D1 fused N-terminally to human IgG1 Fc (VNAR-hFc) (Fc fusion, not shown: a dimerising Fc or GST)
chain: ARVDQTPQTITKEEGESLTINCVLRHNYSALASTSWYRKKSGSTREETISKGGRYVETVNSGSKSFSLRINDLTVEDSGTYRCNVYGISFIEEKIRYDFDVYGDGTAVTVNA
B3: VNAR clone H6 fused N-terminally to human IgG1 Fc (VNAR-hFc) (Fc fusion, not shown: a dimerising Fc or GST)
chain: ARVDQTPQTITKEEGESLTINCVLRTHSNALASTSWYRKKSGSTREETISKGGRYVETVNSGSKSFSLRINDLTVEDSGTYRCNVYAFLEIQPNIYHEFDVYGDGTAVTVNA
B4: VNAR clone H7 fused N-terminally to human IgG1 Fc (VNAR-hFc) (Fc fusion, not shown: a dimerising Fc or GST)
chain: ARVDQTPQTITKEEGESLTINCVLRYNNPALASTSWYRKKSGSTREETISKGGRYVETVNSGSKSFSLRINDLTVEDSGTYRCNVYFFPSFLVDKLQSHDVYGDGTAVTVNA
B5: VNAR clone E12 fused N-terminally to human IgG1 Fc (VNAR-hFc) (Fc fusion, not shown: a dimerising Fc or GST)
chain: ARVDQTPQTITKEEGESLTINCVLRTQDPALASTSWYRKKSGSTREETISKGGRYVETVNSGSKSFSLRINDLTVEDSGTYRCNVYFLLAPTKTKLQGIDVYGDGTAVTVNA
B6: VNAR clone F12 fused N-terminally to human IgG1 Fc (VNAR-hFc) (Fc fusion, not shown: a dimerising Fc or GST)
chain: ARVDQTPQTITKEEGESLTINCVLRVHGRALASTSWYRKKSGSTREETISKGGRYVETVNSGSKSFSLRINDLTVEDSGTYRCNVYGLSFGDIEGVKKIDVYGDGTAVTVNA
B7: VNAR clone G12 fused N-terminally to human IgG1 Fc (VNAR-hFc) (Fc fusion, not shown: a dimerising Fc or GST)
chain: ARVDQTPQTITKETGESLTINCVLRDSNCALSSTYWYRKKSGSTNEALISKGGRYVETVNSGSKSFSLRINDLTVEDSGTYRCNVVQDLRDDCFFRDVYGGGTAVTVNA
B8: VNAR clone G3 fused N-terminally to human IgG1 Fc (VNAR-hFc) (Fc fusion, not shown: a dimerising Fc or GST)
chain: ARVDQTPQTITKETGESLTINCVLRDNNCALSTTYWYRKKSGSTNEENISKGGRYVETVNSGSKSFSLRINDLTVEDSGTYRCKVHFFPSFCNSTSIRSVDVYGGGTVVTVNA
B9: VNAR clone B12 fused N-terminally to human IgG1 Fc (VNAR-hFc) (Fc fusion, not shown: a dimerising Fc or GST)
chain: ARVDQTPRSVTKETGESLTINCVLRDASYALGSTCWYRKKSGSTNEESISKGGRYVETVNSGSKSFSLRINDLTVEDGGTYRCGVARGWRTLNYLCDVRTGEWSCVWRAAACGDGTAVTVNA
B10: VNAR clone F11 fused N-terminally to human IgG1 Fc (VNAR-hFc) (Fc fusion, not shown: a dimerising Fc or GST)
chain: ARVDQTPQTITKEEGESLTINCVLRGEFYALASTSWYRKKSGSTREETISKGGRYVETVNSGSKSFSLRINDLTVEDSGTYRCNVYGYRIFSPEVKGPNDVYGDGTAVTVNA
B11: VNAR clone A8 fused N-terminally to human IgG1 Fc (VNAR-hFc) (Fc fusion, not shown: a dimerising Fc or GST)
chain: ARVDQTPQTITKEEGESLTINCVLRRNFQLASTSWYRKKSGSTREETISKGGRYVETVNSGSKSFSLRINDLTVEDSGTYRCNVYGFVEFAKNIVEFIDVYGDGTAVTVNA
B12: VNAR clone G6 fused N-terminally to human IgG1 Fc (VNAR-hFc) (Fc fusion, not shown: a dimerising Fc or GST)
chain: ARVDQTPQTITKEEGESLTINCVLRVETRALASTSWYRKKSGSTREETISKGGRYVETVNSGSKSFSLRINDLTVEDSGTYRCNVYIRHYSEFTQAPFRDVYGDGTAVTVNA
B13: VNAR clone H12 fused N-terminally to human IgG1 Fc (VNAR-hFc) (Fc fusion, not shown: a dimerising Fc or GST)
chain: ARVDQTPQTITKEEGESLTINCVLRVHGCALASTSWYRKKSGSTREETISKGGRYVETVNSGSKSFSLRINDLTVEDSGTYRCNVYGLSFVDIEGVKKIDVYGDGTAVTVNA
B14: VNAR clone H7A fused N-terminally to human IgG1 Fc (VNAR-hFc) (Fc fusion, not shown: a dimerising Fc or GST)
chain: PGVDQTEQTIKKEEGESVTIKCVMRVKYPALASTSRYRKKSGSREETISKGGRYVETVNYSSKSISVRINDMTVEDSGRYRCNVYEEYAVDCDALVYQDVYGDGTAVTVNA
B15: VNAR clone H8 fused N-terminally to human IgG1 Fc (VNAR-hFc) (Fc fusion, not shown: a dimerising Fc or GST)
chain: ARVDQTPQTITKETGESLTINCVLRDSNCALPSTYWYRKKSGSTNEESISKGGRYVETVNSGSKSFSLRINDLVVEDSGTYRCKVGNYCIRLCYDMKFAVDVYGGGTAVTVNA
B16: VNAR clone C6 fused N-terminally to human IgG1 Fc (VNAR-hFc) (Fc fusion, not shown: a dimerising Fc or GST)
chain: ARVDQTPQTITKETGESLTINCVLRDSNCALSSTYWYRKKSGSTNEALISKGGRYVETVNSGSKSFSLRINDLTVEDSGTYRCNVVYDLRDDCFFRDVYGGGTAVTVNA
B17: VNAR clone G10 fused N-terminally to human IgG1 Fc (VNAR-hFc) (Fc fusion, not shown: a dimerising Fc or GST)
chain: ARVDQTPQTITKETGESLTINCVLRDSNCALSSTYWYRKKSGSTNEENISKGGRYVETVNSGSKSFSLKINDLTVEDSGTYRCKVVFKLFSGRACAGEKDVYGGGTVVTVNA

Key:
[1] = molecular target: Human serum albumin (human) (UniProt P02768); assay: ELISA, expression medium of VNAR-hFc on coated protein (negative control)
[2] = molecular target: ectodomain of murine CD98hc (mouse) (UniProt P10852); assay: ELISA, purified VNAR-Fc titrated on coated CD98hc
[3] = molecular target: ectodomain of murine CD98hc (mouse) (UniProt P10852); assay: ELISA, expression medium of VNAR-hFc on coated protein
[4] = molecular target: ectodomain of human CD98hc (human) (UniProt P08195); assay: as above
ectodomain of human CD98hc (human), sequence (P08195 206-630): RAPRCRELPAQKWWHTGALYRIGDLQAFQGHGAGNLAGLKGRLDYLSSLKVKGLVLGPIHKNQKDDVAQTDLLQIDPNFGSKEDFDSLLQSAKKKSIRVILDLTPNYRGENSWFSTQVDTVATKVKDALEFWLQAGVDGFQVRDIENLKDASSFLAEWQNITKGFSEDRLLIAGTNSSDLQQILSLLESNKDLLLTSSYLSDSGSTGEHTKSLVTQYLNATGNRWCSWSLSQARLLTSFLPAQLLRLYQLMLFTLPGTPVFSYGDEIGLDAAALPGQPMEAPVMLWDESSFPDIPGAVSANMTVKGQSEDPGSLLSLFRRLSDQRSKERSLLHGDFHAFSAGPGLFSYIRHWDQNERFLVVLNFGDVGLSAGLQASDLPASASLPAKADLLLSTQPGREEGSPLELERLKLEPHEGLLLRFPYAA

ectodomain of murine CD98hc (mouse), sequence (P10852 100-526): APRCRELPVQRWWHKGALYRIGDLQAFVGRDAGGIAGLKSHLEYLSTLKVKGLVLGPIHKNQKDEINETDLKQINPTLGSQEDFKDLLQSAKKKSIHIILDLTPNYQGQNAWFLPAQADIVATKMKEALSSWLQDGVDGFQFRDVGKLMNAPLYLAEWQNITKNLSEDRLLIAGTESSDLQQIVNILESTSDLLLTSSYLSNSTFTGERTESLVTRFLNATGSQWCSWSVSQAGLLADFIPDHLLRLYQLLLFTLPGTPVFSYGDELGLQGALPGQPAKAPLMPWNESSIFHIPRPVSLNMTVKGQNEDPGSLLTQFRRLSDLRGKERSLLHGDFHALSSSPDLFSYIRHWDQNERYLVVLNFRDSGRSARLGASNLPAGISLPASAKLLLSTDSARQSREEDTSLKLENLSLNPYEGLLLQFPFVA
Human serum albumin (human), sequence (P02768 25-609 limits assumed): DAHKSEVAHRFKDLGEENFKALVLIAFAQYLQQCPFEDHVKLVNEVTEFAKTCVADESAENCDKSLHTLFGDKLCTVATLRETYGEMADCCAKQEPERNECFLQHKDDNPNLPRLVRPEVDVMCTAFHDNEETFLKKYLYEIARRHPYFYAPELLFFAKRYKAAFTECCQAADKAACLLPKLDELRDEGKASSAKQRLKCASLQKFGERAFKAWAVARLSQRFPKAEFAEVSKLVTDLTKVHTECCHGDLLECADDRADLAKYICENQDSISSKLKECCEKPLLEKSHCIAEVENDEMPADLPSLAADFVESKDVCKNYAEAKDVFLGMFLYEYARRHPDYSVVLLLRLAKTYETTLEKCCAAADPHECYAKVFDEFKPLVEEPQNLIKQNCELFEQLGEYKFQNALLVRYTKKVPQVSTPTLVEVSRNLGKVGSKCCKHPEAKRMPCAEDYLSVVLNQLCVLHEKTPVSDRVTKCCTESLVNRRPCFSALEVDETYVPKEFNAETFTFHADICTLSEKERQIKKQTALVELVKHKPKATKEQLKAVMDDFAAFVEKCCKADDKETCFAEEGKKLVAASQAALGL

Binder | Binding [relative units] (relative units) [1] | EC50 [2] | Binding [relative units] (relative units) [3] | Binding [relative units] (relative units) [4]
B1 | 0.073 | 3860 nM | 0.115 | –
B2 | 0.074 | 190 nM | 0.417 | –
B3 | 0.06 | 86 nM | 0.186 | –
B4 | 0.072 | 504 nM | 0.108 | –
B5 | 0.056 | 819 nM | 0.078 | –
B6 | 0.112 | 72 nM | 0.563 | –
B7 | 0.054 | – | 0.044 | 0.044
B8 | 0.053 | – | 0.041 | –
B9 | 0.081 | – | 0.084 | 0.076
B10 | 0.072 | – | 0.096 | 3.03
B11 | 0.065 | – | 0.135 | 2.97
B12 | 0.052 | – | 0.041 | 0.042
B13 | 0.055 | – | 0.045 | 0.046
B14 | 0.054 | – | 0.043 | 0.043
B15 | 0.059 | – | 0.049 | 0.048
B16 | 0.052 | – | 0.042 | 0.041
B17 | 0.051 | – | 0.041 | 0.043
